Measured values: patent US20200199250A1 (KYMAB, published 2020)

Biological target: human factor X (human, UniProt P00742 41-179; P00742 183-488)
Experiment: cell-based or functional assay

human factor X, sequence (P00742 41-179, chain 1 of 2): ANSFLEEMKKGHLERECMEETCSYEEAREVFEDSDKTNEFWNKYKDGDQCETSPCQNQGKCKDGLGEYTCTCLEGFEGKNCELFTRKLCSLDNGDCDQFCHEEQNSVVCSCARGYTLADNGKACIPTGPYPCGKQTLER
human factor X, sequence (P00742 183-488, chain 2 of 2): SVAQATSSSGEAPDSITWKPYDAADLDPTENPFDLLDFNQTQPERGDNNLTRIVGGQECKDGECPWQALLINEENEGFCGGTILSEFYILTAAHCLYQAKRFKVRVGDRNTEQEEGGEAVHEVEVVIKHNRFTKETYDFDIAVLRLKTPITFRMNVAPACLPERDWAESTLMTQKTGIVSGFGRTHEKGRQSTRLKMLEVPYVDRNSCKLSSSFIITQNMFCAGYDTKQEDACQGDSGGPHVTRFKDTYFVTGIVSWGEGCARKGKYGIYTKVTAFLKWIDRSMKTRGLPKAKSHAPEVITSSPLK

EC50, Hyphen chromogenic FVIII mimetic activity assay (FXa generation with added FX and FIXa in diluted FVIII deficient plasma; OD405): 5.92 nM
B1: IXAX-1280.0999.0325 (bispecific antibody, human IgG4 S228P, lambda)
heavy 1: EVQLVESGGGFVQPGGSLRLSCAVSGFRFNSYWMSWVRQAPGKGLEWVANINQDGSRKFYVASVKGRFTMSRDNAKKSVYVQMNSLRAEDTAVYYCAREGYSSIKYYGMDVWGQGTTVTVSSASTKGPSVFPLAPCSRSTSESTAALGCLVKDYFPEPVTVSWNSGALTSGVHTFPAVLQSSGLYSLSSVVTVPSSSLGTQTYTCNVDHKPSNTKVDKRVESKYGPPCPPCPAPEFLGGPSVFLFPPKPKDTLMISRTPEVTCVVVDVSQEDPEVQFNWYVDGVEVHNAKTKPREEQYNSTYRVVSVLTVLHQDWLNGKEYKCKVSNKGLPSSIEKTISKAKGQPREPQVYTLPPSQEEMTKNQVSLTCLVKGFYPSDIAVEWESNGQPENNYKTTPPVLDSDGSFFLYSKLTVDKSRWQEGNVFSCSVMHEALHNHYTQESLSLSP
heavy 2: QVQLIQSGAKVKKPGASVKVSCKASRYKFTSYYMHWVRQAPGQGLEWMGIINPKSGSTSYAQKFQGRVTMTRDTSTSTVYMELSSLRSEDTAVYYCARDGYGSFSRLIQLWGQGTLVTVSSASTKGPSVFPLAPCSRSTSESTAALGCLVKDYFPEPVTVSWNSGALTSGVHTFPAVLQSSGLYSLSSVVTVPSSSLGTQTYTCNVDHKPSNTKVDKRVESKYGPPCPPCPAPEFLGGPSVFLFPPKPKDTLMISRTPEVTCVVVDVSQEDPEVQFNWYVDGVEVHNAKTKPREEQYNSTYRVVSVLTVLHQDWLNGKEYKCKVSNKGLPSSIEKTISKAKGQPREPQVYTLPPSQKEMTKNQVSLTCLVKGFYPSDIAVEWESNGQPENNYKTTPPVLDSDGSFFLYSKLTVDKSRWQEGNVFSCSVMHEALHNHYTQKSLSLSP
light: YVLTQPPSVSVAPGETARITCGGDNIGRKSVYWYQQKSGQAPVLVIYYDSDRPSGIPERFSGSNSGNTATLTISRVEAGDEADYYCQVWDGSSDHWVFGGGTKLTVLGQPKAAPSVTLFPPSSEELQANKATLVCLISDFYPGAVTVAWKADSSPVKAGVETTTPSKQSNNKYAASSYLSLTPEQWKSHKSYSCQVTHEGSTVEKTVAPTECS
